T1: GST-bZIP30 (Arabidopsis thaliana, UniProt Q9SIG8 1-519)
T1 construct: bZIP30 transcription factor, Arabidopsis, AT2G21230; full-length coding region without stop codon; destination vector pDEST15 (N-GST); source: Escherichia coli, purified (glutathione beads); not shown: GST, N-terminal, kept
T1 sequence (looked up): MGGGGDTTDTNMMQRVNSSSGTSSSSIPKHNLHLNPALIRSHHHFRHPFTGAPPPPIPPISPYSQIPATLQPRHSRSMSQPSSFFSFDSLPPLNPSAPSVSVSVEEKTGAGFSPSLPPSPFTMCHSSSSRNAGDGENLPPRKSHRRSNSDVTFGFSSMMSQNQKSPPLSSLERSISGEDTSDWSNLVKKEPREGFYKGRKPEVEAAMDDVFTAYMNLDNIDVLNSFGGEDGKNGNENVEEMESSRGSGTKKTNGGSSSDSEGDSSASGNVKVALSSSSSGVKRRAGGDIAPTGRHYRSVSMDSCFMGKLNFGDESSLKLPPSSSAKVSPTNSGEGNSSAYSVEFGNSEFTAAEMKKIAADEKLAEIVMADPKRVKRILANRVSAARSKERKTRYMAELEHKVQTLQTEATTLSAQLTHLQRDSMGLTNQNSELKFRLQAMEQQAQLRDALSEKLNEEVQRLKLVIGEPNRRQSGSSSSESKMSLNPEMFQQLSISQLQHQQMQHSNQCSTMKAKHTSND

T2: GST-bZIP30 (Arabidopsis thaliana (Mouse-ear cress), UniProt Q9SIG8)
T2 chain: T1 sequence (looked up)

T3: MBP-bZIP30 (Arabidopsis thaliana, UniProt Q9SIG8 1-519)
T3 construct: bZIP30 transcription factor, Arabidopsis, AT2G21230; full-length coding region without stop codon; destination vector pMAL2CGW (N-MBP); source: Escherichia coli, purified (amylose resin); not shown: MBP, N-terminal, kept
T3 sequence (looked up): T1 sequence (looked up)

B1: MBP-KIN10 (enzyme, Arabidopsis thaliana, UniProt Q38997 1-512, looked up)
chain: MDGSGTGSRSGVESILPNYKLGRTLGIGSFGRVKIAEHALTGHKVAIKILNRRKIKNMEMEEKVRREIKILRLFMHPHIIRLYEVIETPTDIYLVMEYVNSGELFDYIVEKGRLQEDEARNFFQQIISGVEYCHRNMVVHRDLKPENLLLDSKCNVKIADFGLSNIMRDGHFLKTSCGSPNYAAPEVISGKLYAGPEVDVWSCGVILYALLCGTLPFDDENIPNLFKKIKGGIYTLPSHLSPGARDLIPRMLVVDPMKRVTIPEIRQHPWFQAHLPRYLAVPPPDTVQQAKKIDEEILQEVINMGFDRNHLIESLRNRTQNDGTVTYYLILDNRFRASSGYLGAEFQETMEGTPRMHPAESVASPVSHRLPGLMEYQGVGLRSQYPVERKWALGLQSRAHPREIMTEVLKALQDLNVCWKKIGHYNMKCRWVPNSSADGMLSNSMHDNNYFGDESSIIENEAAVKSPNVVKFEIQLYKTRDDKYLLDLQRVQGPQFLFLDLCAAFLAQLRVL
notes: KIN10, catalytic subunit of SnRK1, Arabidopsis, AT3G01090; full-length coding region without stop codon; destination vector pMAL2CGW (N-MBP); source: Escherichia coli, purified (amylose resin); not shown: MBP, N-terminal, kept
B2: MBP-BZR1 (natural protein, Arabidopsis thaliana, UniProt Q8S307 1-336, looked up)
chain: MTSDGATSTSAAAAAAAAAAARRKPSWRERENNRRRERRRRAVAAKIYTGLRAQGDYNLPKHCDNNEVLKALCVEAGWVVEEDGTTYRKGCKPLPGEIAGTSSRVTPYSSQNQSPLSSAFQSPIPSYQVSPSSSSFPSPSRGEPNNNMSSTFFPFLRNGGIPSSLPSLRISNSCPVTPPVSSPTSKNPKPLPNWESIAKQSMAIAKQSMASFNYPFYAVSAPASPTHRHQFHTPATIPECDESDSSTVDSGHWISFQKFAQQQPFSASMVPTSPTFNLVKPAPQQMSPNTAAFQEIGQSSEFKFENSQVKPWEGERIHDVGMEDLELTLGNGKARG
notes: BRASSINAZOLE-RESISTANT1 (BZR1), Arabidopsis, AT1G75080; full-length coding region without stop codon; destination vector pMAL2CGW (N-MBP); source: Escherichia coli, purified (amylose resin); not shown: MBP, N-terminal, kept
B3: GST-BZR1 (natural protein, Arabidopsis thaliana, UniProt Q8S307 1-336, looked up)
chain: B2 chain
notes: BRASSINAZOLE-RESISTANT1 (BZR1), Arabidopsis, AT1G75080; full-length coding region without stop codon; destination vector pDEST15 (N-GST); source: Escherichia coli, purified (glutathione beads); not shown: GST, N-terminal, kept

Assays:
[1] = molecular target: T1, GST-bZIP30; test: pull-down; 1 μg GST fusion on glutathione beads incubated with 1 µg MBP or MBP fusion; 20 mM Tris-HCl pH 7.5, 100 mM NaCl, 1 mM EDTA; with or without 1 mM H2O2; room temperature; washes with 300 mM NaCl, 0.5% Triton X-100; anti-MBP immunoblot; conditions: both partners purified
[2] = molecular target: T2, GST-bZIP30; test: GST pull-down; binding enhanced by 1 mM H2O2 (oxidation of BZR1, Cys63)
[3] = molecular target: T3, MBP-bZIP30; test: pull-down; 1 μg GST fusion on glutathione beads incubated with 1 µg MBP or MBP fusion; 20 mM Tris-HCl pH 7.5, 100 mM NaCl, 1 mM EDTA; with or without 1 mM H2O2; room temperature; washes with 300 mM NaCl, 0.5% Triton X-100; anti-MBP immunoblot; conditions: both partners purified

Binder	binding result [1]	binding result [2]	binding result [3]
B1	binds	–	–
B2	binds	binds	–
B3	–	–	binds

From publication PMC11178795, “Hydrogen peroxide is required for light-induced stomatal opening across different plant species” (Nature Communications, 2024)
